Tests used:
[1] = target: recombinant human FcRn/FCGRT-B2M heterodimer protein (human) (UniProt P55899); assay: SPR Biacore 8K+, antibody on CM5 chip, FcRn in solution, pH 6.0
[2] = target: recombinant human FcRn/FCGRT-B2M heterodimer protein (human) (UniProt P55899); assay: SPR, steady state affinity, pH 6.0
[3] = target: SARS-COV-2 RBD (His-tagged, Sinobiologicals) (SARS-CoV-2 (Wuhan)) (UniProt P0DTC2); assay: ELISA, coated antigen, dilution series, OD450 [3/3]
[4] = target: recombinant stabilized SARS-COV-1 Spike protein ([change], with foldon) (SARS-CoV-1) (UniProt P59594); assay: as above
[5] = target: recombinant prefusion-stabilized SARS-COV-2 spike protein S-6P (SARS-CoV-2 (Wuhan)) (UniProt P0DTC2); assay: as above

recombinant human FcRn/FCGRT-B2M heterodimer protein (human), sequence (P55899 24-297 limits assumed, chain 1 of 2): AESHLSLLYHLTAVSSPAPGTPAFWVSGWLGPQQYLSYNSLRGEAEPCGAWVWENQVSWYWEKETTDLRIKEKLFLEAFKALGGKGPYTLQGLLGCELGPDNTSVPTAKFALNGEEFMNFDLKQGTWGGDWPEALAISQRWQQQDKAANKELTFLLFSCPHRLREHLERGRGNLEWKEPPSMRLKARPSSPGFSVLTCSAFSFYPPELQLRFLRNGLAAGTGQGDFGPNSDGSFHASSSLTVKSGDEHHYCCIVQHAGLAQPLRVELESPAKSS
recombinant human FcRn/FCGRT-B2M heterodimer protein (human), sequence (P61769 21-119 limits assumed, chain 2 of 2, further chain): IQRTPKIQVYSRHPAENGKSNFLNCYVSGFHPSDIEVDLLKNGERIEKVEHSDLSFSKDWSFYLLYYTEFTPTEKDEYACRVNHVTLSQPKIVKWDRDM

Row | Substance | RUmax (steady state affinity, pH 6.0) [1] [RU] | Kd [2] [nM] | EC50 (read off the curve) [3] [µg/mL] | EC50 (read off the curve) [4] [µg/mL] | EC50 (read off the curve) [5] [µg/mL]
1 | Bebtelovimab Biosimilar (PX-TA1750) (antibody) | 57.1 | 19.4 | – | – | –
2 | S309 monoclonal antibody | – | – | 0.1 | 0.04 | 0.09
3 | human IgG1 isotype control antibody | 37.5 | 15 | – | – | –
